The values that follow come from PMC9542156, “Multivalent γ‐PGA‐Exendin‐4 Conjugates to Target Pancreatic β‐Cells” (Chembiochem, 2022).

The test system of series [1] is dipeptidyl peptidase‐IV (DPP‐IV). The following applies: natural ligand GLP-1 rapidly degraded by DPP-IV; cited from earlier work. An excerpt: Type 2 diabetes is an unresolved pathology, related to genetic and environmental factors, which gradually decline the pancreatic islet functionality, finally culminating in a pathological phenomenon defined as hyperglycemia.[1] Pancreatic β‐cells take on a key role in the so‐called glucose homeostasis by secreting insulin and amylin.[2] A wide range of pharmacologic treatments have been developed, but none of them is considered the ultimate solution.[3] The classic target for diabetes 2 therapies is GLP‐1R, that stimulates insulin secretion upon interaction with its natural ligand, gluca ...

The subject of series [2] is GLP‐1R of Beta‐TC‐6 cells. Put plainly: Affinity test (cell-based competitive flow cytometric receptor binding assay). Particulars: 10 nM fluorescein-labelled Ex-4, 0.5 h, 310 K, compared to Ex4-PEG-MA. How it is done:
The binding ability of γ‐PGA‐Ex‐4 compounds to GLP‐1R expressed on β‐cells surface was examined in a competitive flow cytometric assay. This receptor binding assay was developed based on similar, receptor targeting studies, of Ex‐4 targeting[85] and folate targeting.[86] The relative competition capability to the target receptor, compared to Ex4‐PEG‐MA, was evaluated among γ‐PGA‐Ex‐4 conjugates at different degrees of functionalization. The obtained values were normalized with respect to the degree of functionalization of each bioconjugate, so that the comparison is not affected by the different amount of Ex‐4 molecules on each polymeric chain. GLP‐1R positive Beta‐TC‐6 cells were co‐incubated with fluorescein‐labelled Ex‐4 and the different Ex‐4 formulations, γ‐PGA‐Ex‐4‐1, γ‐PGA‐Ex‐4‐2, γ‐PGA‐Ex‐4‐3, and Ex4‐PEG‐MA or Ex‐4 as references. […]
5×10^5 cells were incubated with 10 nм fluorescein‐labelled Ex‐4 (Eurogentec) alone or together with the tested compounds at 310 K in RPMI supplemented with 10 % FBS. After 0.5 h the cells were washed with ice cold PBS and fluorescence of the cells was measured by flow cytometer (BD FACSCalibur). […] The binding ability of γ‐PGA‐Ex‐4 conjugates and peptides to the GLP‐1R positive cells was calculated based on the inhibition of the fluorescent Ex‐4 derived signal. […]

For glucagon‐like peptide 1 [GLP‐1], the “time to degradation by DPP‐IV” value in series [1] was < 2 min.

For the substance “HGEGTFTSDLSKQMEEE‐AVRLFIEWLys(PEG4‐Mal)KNGGPSSGAPPP S‐NH2 [Ex‐4‐PEG‐MA, exendin‐4(Lysine27‐PEG4‐maleimide), purchased from Caslo ApS]”, the “Binding / affinity towards GLP‐1R positive β‐cells (in words)” value in series [2] is recorded as “still capable to bind GLP‐1R”.
